Measured values reported in patent publication US20170210819A1.

Experiments:
EGFR (human) [1] = molecular target: EGFR (human) (UniProt P00533); assay: flow cytometry on PCI-30 cells; main peak between 10^2 and 10^3 with a tail toward the control; 'No antibody' panel shows 13.1
EGFR (human) [2] = molecular target: EGFR (human) (UniProt P00533); assay: flow cytometry on HeLa cells; histogram shifted to between 10^2 and 10^3; 'No antibody' panel shows 5.56
EGFR (human) [3] = molecular target: EGFR (human) (UniProt P00533); assay: flow cytometry on U2OS cells; histogram shifted to between 10^1 and 10^2, partly overlapping the control; 'No antibody' panel shows 6.17
antigen CD3 (Biacore) = assay: SPR (Biacore), antigen CD3

| MFI (EGFR (human) [1]) | MFI (EGFR (human) [2]) | MFI (EGFR (human) [3]) | Kd (antigen CD3 (Biacore)) | koff (antigen CD3 (Biacore)) | kon (antigen CD3 (Biacore)) | Molecule |
| --- | --- | --- | --- | --- | --- | --- |
| 388 | 586 | 26.8 | – | – | – | EGFR 528 (phb 704) (antibody) |
| – | – | – | 64.6 nM | 0.109 s⁻¹ | 1.68e+06 M⁻¹ s⁻¹ | huOKT3 IgG1-aGlyco (antibody, V domains shown) VH: QVQLVQSGGGVVQPGRSLRLSCKASGYTFTRYTMHWVRQAPGKGLEWIGYINPSRGYTNYNQKFKDRFTISRDNSKNTAFLQMDSLRPEDTGVYFCARYYDDHYCLDYWGQGTPVTVSS VL: DIQMTQSPSSLSASVGDRVTITCSASSSVSYMNWYQQTPGKAPKRWIYDTSKLASGVPSRFSGSGSGTDYTFTISSLQPEDIATYYCQQWSSNPFTFGQGTKLQITR |
